Measurements taken from patent publication US20220204643A1 (published 2022).

What was measured:
Assay in all cases: protein array
[1] = target: T1, endosome associated trafficking regulator 1, transcript variant 2 (human, UniProt Q96C92 59-435)
T1 construct: on protein array; also called SDCCAG3
T1 chain: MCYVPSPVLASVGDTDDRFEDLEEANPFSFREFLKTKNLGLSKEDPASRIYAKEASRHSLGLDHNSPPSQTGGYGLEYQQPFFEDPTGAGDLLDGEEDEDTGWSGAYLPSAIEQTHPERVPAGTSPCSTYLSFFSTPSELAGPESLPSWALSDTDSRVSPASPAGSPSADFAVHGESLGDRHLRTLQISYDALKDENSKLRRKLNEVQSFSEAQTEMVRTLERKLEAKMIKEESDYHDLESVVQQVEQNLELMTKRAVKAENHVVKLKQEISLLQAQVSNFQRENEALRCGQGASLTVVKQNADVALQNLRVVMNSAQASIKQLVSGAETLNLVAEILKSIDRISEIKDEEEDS

[2] = target: T2, DEAD-box helicase 53 (human, UniProt Q86TM3 1-631)
T2 construct: on protein array; also called DDX53

[3] = target: T3, Jupiter microtubule associated homolog 2 (human, UniProt Q9H910 1-190)
T3 construct: on protein array; also called HN1L
T3 sequence: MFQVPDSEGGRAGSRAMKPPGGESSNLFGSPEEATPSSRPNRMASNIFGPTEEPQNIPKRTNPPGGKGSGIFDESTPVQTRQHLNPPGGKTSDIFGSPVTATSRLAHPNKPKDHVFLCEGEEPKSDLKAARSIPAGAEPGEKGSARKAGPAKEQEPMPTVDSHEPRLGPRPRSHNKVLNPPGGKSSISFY

[4] = target: T4, PNMA family member 5, transcript variant 2 (human, UniProt Q96PV4 1-448)
T4 construct: on protein array; also called PNMA5
T4 sequence (Q96PV4 other isoform, or with tags, fused parts or gaps mutant limits assumed): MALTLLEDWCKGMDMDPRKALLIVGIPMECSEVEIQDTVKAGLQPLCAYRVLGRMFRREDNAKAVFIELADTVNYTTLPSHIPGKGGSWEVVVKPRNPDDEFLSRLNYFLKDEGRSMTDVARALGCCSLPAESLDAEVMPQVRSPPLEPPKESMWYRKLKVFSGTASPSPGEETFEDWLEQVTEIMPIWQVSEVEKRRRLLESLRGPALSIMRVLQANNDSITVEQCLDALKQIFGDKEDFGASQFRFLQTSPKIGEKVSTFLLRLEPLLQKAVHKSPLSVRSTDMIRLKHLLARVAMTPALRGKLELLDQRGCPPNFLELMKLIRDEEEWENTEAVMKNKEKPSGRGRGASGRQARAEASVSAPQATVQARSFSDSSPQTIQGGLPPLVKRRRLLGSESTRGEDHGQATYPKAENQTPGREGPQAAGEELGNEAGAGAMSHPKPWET

T2 sequence (Q86TM3 other isoform, or with tags, fused parts or gaps limits assumed): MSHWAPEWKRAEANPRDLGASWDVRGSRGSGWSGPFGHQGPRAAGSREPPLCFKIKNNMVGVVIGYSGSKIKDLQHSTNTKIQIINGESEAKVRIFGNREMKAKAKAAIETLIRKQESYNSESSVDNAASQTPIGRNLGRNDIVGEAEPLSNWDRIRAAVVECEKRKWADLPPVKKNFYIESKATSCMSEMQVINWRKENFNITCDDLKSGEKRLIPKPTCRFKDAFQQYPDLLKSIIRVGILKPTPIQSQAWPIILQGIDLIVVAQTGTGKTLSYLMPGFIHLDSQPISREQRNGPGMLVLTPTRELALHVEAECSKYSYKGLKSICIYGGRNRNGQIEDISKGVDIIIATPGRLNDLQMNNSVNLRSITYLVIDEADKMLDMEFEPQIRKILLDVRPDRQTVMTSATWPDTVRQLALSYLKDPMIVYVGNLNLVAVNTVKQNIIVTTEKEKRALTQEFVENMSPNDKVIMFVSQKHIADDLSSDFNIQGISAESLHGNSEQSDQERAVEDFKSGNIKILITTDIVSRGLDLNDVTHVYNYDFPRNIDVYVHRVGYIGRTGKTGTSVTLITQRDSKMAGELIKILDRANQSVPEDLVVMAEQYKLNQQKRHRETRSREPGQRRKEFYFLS

B1: TMEL1025 (antibody, V domains shown)
VH: EVQLMESGGGLVQPGGSLRLSCAASGLTFSIYSMNWVRQAPGKGLEWVSYISRGSSVIYHADSVKGRFTISRDDGKNLLYLQMNSLRDDDTAMYYCSSGGSTSMVGRYWGQGSLVTVSS
VL: DVVMTQSPLYLPVTLGQPASISCRASQSLVYSDGNTYLNWVHQRPGQSPRRLIYMVSQRGSGVPDRFSGSGSDTDFTLKISRVEAEDVGVYYCMQGTHWSAFGQGTKLEIKR
notes: VH/VL tied via antigen in summary, not by name in this stretch
binding result [1]: binds

B2: TMES1001 (antibody, V domains shown)
VH: QVQLVQSGAEVKKPGASVKVSCKASGYTFTSYYMYWVRQAPGQGLEWMGIINPGGGSTSYAQKFQGRVTMTRDTSTSTVYMELSSLRSEDTAVYYCARVFRYGMDVWGQGTTVTVSS
VL: EIVMTQSPATLSVSPGERATLSCRASQSVSSNLAWYQQKPGQAPRLLIYGASTRATGLPARFSGSGSGTEFTLTISSLQSEDFAVYYCQSRGTFGGGTKVEIK
notes: as for B1
binding result [1]: binds

B3: TOVA1001 (antibody, V domains shown)
VH: HVQLVQSGSELKKPGASVKLSCKASGYTFTNYAMNWVRQAPGQGLEWMGWINTNTGNPTYAQGFTGRFVFSLDTSVSTAYLQISSLKAEDTALYYCARDRPGDYWGQGTLVTVSS
VL: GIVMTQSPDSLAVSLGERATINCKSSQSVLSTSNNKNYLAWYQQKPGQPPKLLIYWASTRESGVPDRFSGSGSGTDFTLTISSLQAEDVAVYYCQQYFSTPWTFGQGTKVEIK
notes: as for B1
binding result [2]: binds

B4: TOVA1008 (antibody, V domains shown)
VH: ELQLVESGGGLVQPGGSLRLSCAASGFTFSSYWMSWVRQAPGKGLEWVANINQDGGEKYYVDSVKGRFTISRDNAKNSLYLQMNSLRAEDTAVYYCAHYYYDSSGYYQNAEYFQYWGQGTLVTVSS
VL: DIQMTQSPPSLSASVGDRVTITCQASQDISNYLNWYQQKPGKTPKLLIYAASTLETGVPSRFSGSGSGTDFTFTINSLQPEDIATYYCQQYDSLPLTFGGGTKVEIKR
notes: as for B1
binding result [3]: binds

B5: TSAR1004 (antibody, V domains shown)
VH: QVQLQESGPGLVKPSETLSLTCSVSGDSFSDYYWSWTRQSPGKGLEWLGYMFYGGSTNYNPSLKSRLTMSVDTSKKHVYLKLSSVTAADTAVYYCAASGYGDHVAYWGQGTLVTVSS
VL: DIVMTQSPDSLAVSLGERATLNCKSSQSVLSSYNNKDYLAWFQQKPGQPPQLLFYWASTRKTGVPDRFSGSGSGTDFTLTISSLQTEDVAVYYCQQYYSTPYTFGQGTKLEIK
notes: as for B1
binding result [2]: binds

B6: TBRE1011 (antibody, V domains shown)
VH: PVLLQESGPGLVKPSETLSLTCTVSGDSMSFYYWTWIRQPPGKGLEWIGYIYYSGNRNYNPSLNSRVTISVDTSKNEVSLKLTSVTAADTAAYYCARGRGEMDVWGQGTTVTVSS
VL: QSVLTQPPSASGTPGQGVTISCSGTSANIGKNYVSWYQHLPGTAPRLLIYRIDQRPSGVPDRFSGSKSGTSASLAISGLRPEDEADYYCAAWDDSLSGPVFGGGTKLTVLG
notes: VH/VL only
binding result [4]: binds

B7: TTES1011 (antibody, V domains shown)
VH: PVTLRESGPALVKPTQTLTLTCTFSGFSLSTSGMCVSWIRQPPGKALEWLARIDWDDDKYYSTSLKTRLTISKDTSKNQVVLTMTNMDPVDTATYYCARMQIVATTQTYYYYYGMDVWGQGTTVTVSS
VL: PAVLTQPPSVSGAPGQRVTISCTGSSSNIGAGYDVHWYQQLPGTAPKLLIYGNSNRPSGVPDRFSGSKSGTSASLAITGLQAEDEADYYCQSYDSSLSGSGVFGGGTKLTVLG
notes: as for B1
binding result [3]: binds

B8: THNS1009 (antibody, V domains shown)
VH: QVQLQESGPGLVKPSETLSLTCTVSGGSISIYYWSWIRQPPGKGLEWIGYIYYSGSTNYNPSLKSRVTISVDTSKNQFSLKLRSVTAADTAVYYCARDTYGDPRGDYFDYWGQGTLVTVSS
VL: DIQMTQSPSTLSASVGDRVTITCRASQRISNWLAWYQQTPGKAPKLLIYKASSLESGVPSRFSGSGSGTEFTLTISSLQPDDFATYYCQQYSSSSPRTFGQGTKVEIKR
notes: VH/VL only
binding result [4]: binds
